Experimental findings from PMC12661434 are described below.

By stoichiometry N is commonly meant a count of units in the complex or per binding partner.

The assay deals with StayRose (His-tagged StayGold bearing 3-aminotyrosine at Y58) (Cytaeis uchidae). Description: SEC; Superdex 75 Increase 10/300 GL, 20 mM Hepes, 150 mM NaCl, pH 7.5, 0.8 ml/min; ~1 mg/ml (38 uM) protein loaded via a 0.5 ml loop. A general note: SEC sorts molecules by how far they enter the pores of the column.

In turn, “StayRose (His-tagged StayGold bearing 3-aminotyrosine at Y58)” came in with a stoichiometry N of 2.
